According to article PMC5636944:

Target: K63 diubiquitin (K63 diUb)
Test: SPR, p62 immobilised on CM5 chip

Substance	KD (reference: p62S403Pi (monophosphorylated), sites S407)	KD (reference: p62S407Pi (monophosphorylated), sites S403)	KD (reference: recombinant p62 WT, unphosphorylated, sites S403,S407)
p62/SQSTM1 (sequestosome-1) 320-436 (from UniProt Q13501) p62 2Pi (pS403/pS407)	stronger; reference 4.4 ± 0.4 μM	stronger; reference 14.8 ± 1.0 μM	
p62/SQSTM1 (sequestosome-1) 320-436 (from UniProt Q13501) semisynthetic p62 2Pi (pS403/pS407)			stronger; reference 167.9 ± 13.0 μM
